Reference: PMC9723947, “Ornate, large, extremophilic (OLE) RNA forms a kink turn necessary for OapC protein recognition and RNA function”

Experiments:
[1] = target: T1, YbxF/OapC WT (Bacillus halodurans C-125) (UniProt Q9Z9M0); assay: filter binding; details: Filter binding: 20 mM Tris-HCl pH 7.5, 150 mM NaCl, 10 mM MgCl2, 1 mM TCEP, ~20 C, 15 min, ~10 pM RNA
T1 sequence: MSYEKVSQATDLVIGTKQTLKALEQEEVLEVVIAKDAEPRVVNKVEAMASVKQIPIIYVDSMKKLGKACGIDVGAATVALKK

[2] = target: T1, YbxF/OapC WT (Bacillus halodurans C-125); assay: footprinting (in-line probing); details: Filter binding: 20 mM Tris-HCl pH 7.5, 150 mM NaCl, 10 mM MgCl2, 1 mM TCEP, ~20 C, 15 min, ~10 pM RNA
YbxF/OapC WT [3] = target: T2, YbxF/OapC WT (Bacillus halodurans C-125, UniProt Q9Z9M0 1-82); assay: filter binding; Filter binding: 20 mM Tris-HCl pH 7.5, 150 mM NaCl, 10 mM MgCl2, 1 mM TCEP, ~20 C, 15 min, ~10 pM RNA; details: protein: recombinant, tags: N-terminal His6 + PreScission (3C) site, label: 5' 32P
T2 sequence: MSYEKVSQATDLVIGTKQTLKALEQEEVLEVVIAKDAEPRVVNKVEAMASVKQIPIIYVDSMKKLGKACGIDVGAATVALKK

YbxF/OapC WT [4] = target: T2, YbxF/OapC WT; assay: filter binding; no binding at 1 uM or higher protein; Filter binding: 20 mM Tris-HCl pH 7.5, 150 mM NaCl, 10 mM MgCl2, 1 mM TCEP, ~20 C, 15 min, ~10 pM RNA; details: protein: recombinant; tags: N-terminal His6 + PreScission (3C) site; label: 5' 32P; hairpin

GGCCUUGAGUGGAGUAGAGGGGAUUAUGGGUUUUGAAGCAAUCCGCUGUCGGCCAACAGCCAUUGCCUCUCUAGUACCAUAUGAAAUCUGCUCUGCAAAAGAG [OLE293-394]
binding [1]: no binding

GGCACAUCGAUGAAGCUCCUUGUGAUGGCUUGAGGCGCCCAGCCUUGGGUCAUUGCUGGGAGAAAAGGUAGUAGGGCGAUCCACAAAGGCAUGUGGGCGAUGACCCUCCUACUGUGGAGGCCUUUUUCUCUGCUGCUUAUGUAUGGACAUAGG [OLE78-230]
binding [1]: binds more weakly

GGCACAUCGAUGAAGCUCCUUGUGAUGGCUUGAGGCGCCCAGCCUUGGGUCAUUGCUGGGAGAAAAGGUAGUAGGGCGAUCCACAAAGGCAUGUGGGCGAUGACCCUCCUACUGUGGAGGCCUUUUUCUCUGCUGCUUAUGUAUGGACAUAGGGCAAGAGCAAAGGGUAUGAACCUGCGAAGGCAAGCUAGGGAGCUUGUCAGCAGCGUAGCC [OLE78-290]
binding [1]: binds | binding [2]: binds

GGCAUUUAAAGAGGAUUACAGUGUGGACUAAGUGGUAAUCCAGUCUGGCGUUUGGUGACAGCGCCAAGUUCAACAUAAAGGGAAACCGCCAGCGCGGCGACGCACUGGUGUUGAAUUGGGAAAUCCUACUGGACCUAAGCCACAGAGUUUACUCUUUAAAUG [OLE449-608]
binding [1]: no binding

B1: OLE83-147 (structured_RNA)
RNA: GGAUCGAUGAAGCUCCUUGUGAUGGCUUGAGGCGCCCAGCCUUGGGUCAUUGCUGGGAGAAAAGGUA
binding result (YbxF/OapC WT [3]): binds

GGAUCGAUGAAGCUCCCGAAAGGGAGAAAAGGUA (structured_RNA) [OLE k-turn WT]
binding result (YbxF/OapC WT [3]; hairpin with k-turn): binds

GGACCGAUGAAGCUCCCGAAAGGGAGAAAAGGUA (structured_RNA) [OLE k-turn U84C]
binding result (YbxF/OapC WT [3]; hairpin with k-turn): binds

GGAUAGAUGAAGCUCCCGAAAGGGAGAAAAGGUA (structured_RNA) [OLE k-turn C85A]
binding result (YbxF/OapC WT [4]): no binding
